Test results as given in US20090191117A1 (published 2009).

Tests used:
[1] = biological target: T1, human αVβ5 integrin, purified (human, UniProt P06756 31-1048; P18084 24-799); test: saturation binding ELISA on αvβ5 coated plate, non-linear fit, n = 6
T1 construct: Bought from Chemicon (Triton or octyl formulation); also called alphaVbeta5; aVb5
Description: (§1) αᵥβ₃ or αᵥβ₅ integrin was diluted to 1 μg/ml in Tris-buffered saline (TBS, 10 mM Tris, 100 mM NaCl, pH 7.5) containing 2 mM calcium chloride (TBS/Ca⁺⁺) and coated at 50 μl per well onto 96 well polystyrene Linbro plates (Flow/ICN) overnight at 4° C. Plates were washed with TBS/Ca⁺⁺ and blocked with 1% bovine serum albumin (BSA) in TBS/Ca⁺⁺ for 1 h at room temperature. Fifty microliters of diluted antibody was added in triplicate to coated wells and incubated for 2 h at 37° C. […] Plates were washed three times, and developed with o-phenylenediamine dihydrochloride substrate solution (OPD, Sigma) consisting of 0.1 M citric acid, 0.2M sodium phosphate, 0.01% H₂O₂ and 1 mg/ml OPD. Color development was stopped after 15 min at room temperature with 0.3 N H₂SO₄, and plates were read at OD₄₉₀ nm in the Molecular Dynamics plate reader.

[2] = biological target: T2, integrin aIIbb3 from human placenta extract (human, UniProt P08514 32-1039; P05106 27-788); test: CNTO 95 affinity column on human placenta extract, Western blot with anti-aIIb
T2 construct: mature; only the aIIb subunit was probed; also called aIIbβ3; GPIIb/IIIa
T2 sequence (P08514 32-1039, chain 1 of 2): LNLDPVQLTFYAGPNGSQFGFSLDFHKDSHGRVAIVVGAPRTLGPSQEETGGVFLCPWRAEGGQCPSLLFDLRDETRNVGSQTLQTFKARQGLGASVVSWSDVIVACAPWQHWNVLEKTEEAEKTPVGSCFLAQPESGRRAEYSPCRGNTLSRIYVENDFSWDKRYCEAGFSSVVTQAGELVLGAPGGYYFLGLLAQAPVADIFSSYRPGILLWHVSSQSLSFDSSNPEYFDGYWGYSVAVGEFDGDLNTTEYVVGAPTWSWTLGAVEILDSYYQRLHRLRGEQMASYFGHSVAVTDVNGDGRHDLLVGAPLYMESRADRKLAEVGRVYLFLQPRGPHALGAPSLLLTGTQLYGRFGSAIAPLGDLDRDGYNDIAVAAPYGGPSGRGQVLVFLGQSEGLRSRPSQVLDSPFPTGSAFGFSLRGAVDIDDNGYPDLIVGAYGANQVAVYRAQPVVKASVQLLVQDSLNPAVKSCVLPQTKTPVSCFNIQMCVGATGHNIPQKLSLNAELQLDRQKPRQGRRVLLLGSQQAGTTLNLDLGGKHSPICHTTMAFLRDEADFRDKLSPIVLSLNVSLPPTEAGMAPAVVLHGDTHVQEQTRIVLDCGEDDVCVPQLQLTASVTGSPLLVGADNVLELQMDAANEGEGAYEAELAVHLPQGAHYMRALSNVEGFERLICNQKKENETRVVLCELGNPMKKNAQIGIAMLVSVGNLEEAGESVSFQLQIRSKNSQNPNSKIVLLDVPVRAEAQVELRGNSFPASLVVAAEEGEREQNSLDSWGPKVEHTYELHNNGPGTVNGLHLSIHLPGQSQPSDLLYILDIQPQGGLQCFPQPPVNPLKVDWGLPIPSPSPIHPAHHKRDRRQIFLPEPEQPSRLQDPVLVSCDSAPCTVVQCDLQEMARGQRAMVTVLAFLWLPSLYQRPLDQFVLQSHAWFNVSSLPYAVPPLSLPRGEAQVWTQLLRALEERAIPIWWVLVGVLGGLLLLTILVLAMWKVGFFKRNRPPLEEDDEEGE
T2 sequence (P05106 27-788, chain 2 of 2): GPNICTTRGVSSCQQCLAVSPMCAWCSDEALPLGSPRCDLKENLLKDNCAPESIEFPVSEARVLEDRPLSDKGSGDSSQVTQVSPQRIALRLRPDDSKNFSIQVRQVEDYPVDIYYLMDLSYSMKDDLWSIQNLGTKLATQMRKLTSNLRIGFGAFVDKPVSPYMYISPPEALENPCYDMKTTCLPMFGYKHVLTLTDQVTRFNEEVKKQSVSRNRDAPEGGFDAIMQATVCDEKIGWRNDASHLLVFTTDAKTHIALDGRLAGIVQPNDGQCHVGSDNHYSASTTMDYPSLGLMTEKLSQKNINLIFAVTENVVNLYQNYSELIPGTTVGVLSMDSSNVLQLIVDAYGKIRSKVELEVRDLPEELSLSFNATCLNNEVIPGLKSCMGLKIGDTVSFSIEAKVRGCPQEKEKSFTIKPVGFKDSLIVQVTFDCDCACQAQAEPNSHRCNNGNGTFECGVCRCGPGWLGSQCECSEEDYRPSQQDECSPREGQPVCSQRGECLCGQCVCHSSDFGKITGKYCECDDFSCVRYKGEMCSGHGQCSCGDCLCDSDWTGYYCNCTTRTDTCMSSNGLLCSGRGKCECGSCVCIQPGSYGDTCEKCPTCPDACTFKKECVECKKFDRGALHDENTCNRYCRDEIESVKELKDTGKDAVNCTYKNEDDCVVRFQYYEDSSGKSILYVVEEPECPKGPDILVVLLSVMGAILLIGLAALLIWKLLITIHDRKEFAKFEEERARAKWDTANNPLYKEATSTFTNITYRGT
Description: (§2) Western blot. […] The filters were blocked with 5% nonfat dry milk in TBS containing 0.05% Tween 20 (wash buffer) at room temperature for 1 hour and then incubated with anti-integrin antibodies (anti-a5 (P-19) Santa Cruz, goat polyclonal IgG 1:500 dilution; anti-aIIb, Chemicon, mouse monoclonal IgG1, 1:1000 dilution; anti-αV (Q-20), Santa Cruz, goat polyclonal IgG, 1:500 dilution; anti-b1 (4B7R), Santa Cruz, mouse monoclonal IgG1, 1:500 dilution; anti-b1 (N-20), Santa Cruz, goat polyclonal IgG, 1:500 dilution; anti-β3 (H-96), Santa Cruz, rabbit polyclonal IgG, 1:500 dilution; anti-β5 (H-96), Santa Cruz, rabbit polyclonal IgG, 1:500 dilution; anti-β6 (H-110), Santa Cruz, rabbit polyclonal IgG, 1:250 dilution). After thorough washing, filters were incubated with appropriate peroxidase-conjugated secondary antibodies (1:20000 dilution). The antigen-antibody complexes were visualized using SuperSignal West Pico Chemiluminescent Substrate kit (Pierce).

[3] = biological target: T1, human αVβ5 integrin, purified; test: saturation binding ELISA on αvβ5 coated plate, non-linear fit, six experiments
Description: as §1

[4] = biological target: T3, αvβ5 integrin on HT-29 human colon carcinoma cells (human, UniProt P06756 31-1048; P18084 24-799); test: 125-I antibody saturation binding to HT-29 cells, rounded value
T3 construct: whole, on cells; also called HT-29 cells; HT29 cells
T3 sequence (P06756 31-1048, chain 1 of 2): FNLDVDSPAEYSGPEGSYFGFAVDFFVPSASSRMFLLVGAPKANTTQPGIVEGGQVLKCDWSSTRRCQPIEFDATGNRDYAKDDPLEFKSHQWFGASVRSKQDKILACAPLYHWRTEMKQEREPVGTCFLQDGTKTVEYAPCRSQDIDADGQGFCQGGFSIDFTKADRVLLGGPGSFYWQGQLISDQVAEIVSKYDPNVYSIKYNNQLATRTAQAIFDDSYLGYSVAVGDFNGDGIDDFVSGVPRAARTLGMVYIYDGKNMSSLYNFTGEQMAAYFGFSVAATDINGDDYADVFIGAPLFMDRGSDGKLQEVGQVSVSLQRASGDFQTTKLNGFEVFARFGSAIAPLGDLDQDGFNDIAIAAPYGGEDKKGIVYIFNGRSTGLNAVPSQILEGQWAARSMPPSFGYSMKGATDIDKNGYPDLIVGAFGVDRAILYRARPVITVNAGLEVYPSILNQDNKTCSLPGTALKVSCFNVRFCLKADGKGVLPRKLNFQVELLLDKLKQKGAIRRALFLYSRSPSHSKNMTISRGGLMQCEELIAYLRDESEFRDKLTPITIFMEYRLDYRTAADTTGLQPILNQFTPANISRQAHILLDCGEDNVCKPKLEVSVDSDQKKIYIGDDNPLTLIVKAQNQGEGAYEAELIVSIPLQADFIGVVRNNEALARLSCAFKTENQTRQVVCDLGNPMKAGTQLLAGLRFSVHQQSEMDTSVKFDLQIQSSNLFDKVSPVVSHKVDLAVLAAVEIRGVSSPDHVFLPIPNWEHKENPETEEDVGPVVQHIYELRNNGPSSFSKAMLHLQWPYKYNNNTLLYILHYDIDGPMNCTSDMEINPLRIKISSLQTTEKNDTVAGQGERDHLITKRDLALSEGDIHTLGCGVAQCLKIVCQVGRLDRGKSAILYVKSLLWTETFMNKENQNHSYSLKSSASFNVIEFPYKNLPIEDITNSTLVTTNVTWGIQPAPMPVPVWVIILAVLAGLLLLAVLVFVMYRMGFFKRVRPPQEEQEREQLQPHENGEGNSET
T3 sequence (P18084 24-799, chain 2 of 2): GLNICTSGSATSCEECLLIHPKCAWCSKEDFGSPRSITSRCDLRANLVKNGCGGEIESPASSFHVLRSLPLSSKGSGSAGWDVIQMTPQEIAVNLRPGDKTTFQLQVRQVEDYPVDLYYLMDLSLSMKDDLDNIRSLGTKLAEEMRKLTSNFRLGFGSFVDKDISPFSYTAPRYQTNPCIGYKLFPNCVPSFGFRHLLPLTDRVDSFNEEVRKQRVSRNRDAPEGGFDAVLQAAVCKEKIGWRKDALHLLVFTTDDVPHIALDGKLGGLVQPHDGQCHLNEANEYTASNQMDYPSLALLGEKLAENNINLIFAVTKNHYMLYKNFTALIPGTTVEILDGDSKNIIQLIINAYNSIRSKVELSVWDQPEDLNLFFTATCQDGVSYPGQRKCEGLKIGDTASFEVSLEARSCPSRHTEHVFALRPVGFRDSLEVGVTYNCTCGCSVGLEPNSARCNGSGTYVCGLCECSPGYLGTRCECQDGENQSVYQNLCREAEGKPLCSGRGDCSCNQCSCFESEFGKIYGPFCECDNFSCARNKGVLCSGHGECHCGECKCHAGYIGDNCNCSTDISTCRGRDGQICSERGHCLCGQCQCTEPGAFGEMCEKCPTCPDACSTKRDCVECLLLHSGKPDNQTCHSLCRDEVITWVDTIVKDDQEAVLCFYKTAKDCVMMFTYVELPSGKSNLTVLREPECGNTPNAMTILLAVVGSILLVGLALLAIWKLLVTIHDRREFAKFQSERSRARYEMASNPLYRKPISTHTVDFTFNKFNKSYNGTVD
Description: (§3) Cells were plated 2 days prior to experiment, and 1×10⁵ cells/well at the time of study. […] Nonspecific binding was determined using 100× cold mAb in media. Cells were washed 3× and counted for bound radioactivity. Each curve represents 4-5 separate studies, and each data point in an experiment was the mean of triplicate samples.

[5] = biological target: T1, human αVβ5 integrin, purified; test: comparison of the KD values on integrin coated plates
[6] = biological target: T4, human αVβ3 integrin, purified (human, UniProt P06756 31-1048; P05106 27-788); test: EIA, purified antibody titrated on αVβ3 coated plates
T4 construct: mature; Detergent-extracted heterodimer purified from human placenta at Centocor, or bought from Chemicon; coated on plates or in solution; also called alphaVbeta3; aVb3
T4 sequence (P06756 31-1048, form in doubt, chain 1 of 2): as the sequence (P06756 31-1048, chain 1 of 2) above
T4 sequence (P05106 27-788, form in doubt, chain 2 of 2): as the sequence (P05106 27-788, chain 2 of 2) above

[7] = biological target: T4, human αVβ3 integrin, purified; test: saturation binding ELISA on αvβ3 coated plate, non-linear fit, n = 6
Description: as §1

[8] = biological target: T3, αvβ5 integrin on HT-29 human colon …; test: 125-I antibody saturation binding to HT-29 cells, n = 5
Description: as §3

[9] = biological target: T3, αvβ5 integrin on HT-29 human colon …; test: 125-I antibody saturation binding to HT-29 cells
Description: as §3

[10] = biological target: T5, integrin a5b1 from human placenta extract (human, UniProt P08648 42-1049; P05556 21-798); test: CNTO 95 affinity column on human placenta extract, Western blot with anti-integrin a5
T5 construct: mature; only the a5 subunit was probed; also called a5 containing heterodimers
Description: as §2

T1 sequence (P06756 31-1048, form in doubt, chain 1 of 2): as the sequence (P06756 31-1048, chain 1 of 2) above
T1 sequence (P18084 24-799, form in doubt, chain 2 of 2): as the sequence (P18084 24-799, chain 2 of 2) above

B1: CNTO 95 (antibody, V domains shown)
VH: QVQLVESGGGVVQPGRSRRLSCAASGFTFSRYTMHWVRQAPGKGLEWVAVISFDGSNKYYVDSVKGRFTISRDNSENTLYLQVNILRAEDTAVYYCAREARGSYAFDIWGQGTMVTVSS
VL: EIVLTQSPATLSLSPGERATLSCRASQSVSSYLAWYQQKPGQAPRLLIYDASNRATGIPARFSGSGSGTDFTLTISSLEPEDFAVYYCQQRSNWPPFTFGPGTKVDIK
notes: Fully human IgG1 kappa from a transgenic mouse hybridoma; also called GenO95; C371A
With B1 as the binder, how does the Kd [1] read?
The Kd was 0.25 nM.

Does B1 bind [2]?
Result: no binding

And the Kd [3]?
The Kd was 0.025 nM.

And the Kd [4]?
Its Kd is 1 nM.

What about the “fold higher affinity than for αvβ3 purified integrin” value [5] of the same binder?
The value was ~8 fold.

And the EC50 [6]?
Its EC50 is 0.7 µg/mL.

And the Kd [7]?
The Kd was 0.21 nM.

What about the Kd [8] of the same binder?
The Kd was 1.3 nM.

And the Kd [9]?
Its Kd is 0.13 nM.

Does B1 bind [10]?
Result: no binding
